The source of these data is publication PMC3029278.

The target in the assay is CEACAM1-4L-HA (HA-tagged human CEACAM1) (human) (UniProt P13688).
Chain of UniProt P13688 (P13688 35-526): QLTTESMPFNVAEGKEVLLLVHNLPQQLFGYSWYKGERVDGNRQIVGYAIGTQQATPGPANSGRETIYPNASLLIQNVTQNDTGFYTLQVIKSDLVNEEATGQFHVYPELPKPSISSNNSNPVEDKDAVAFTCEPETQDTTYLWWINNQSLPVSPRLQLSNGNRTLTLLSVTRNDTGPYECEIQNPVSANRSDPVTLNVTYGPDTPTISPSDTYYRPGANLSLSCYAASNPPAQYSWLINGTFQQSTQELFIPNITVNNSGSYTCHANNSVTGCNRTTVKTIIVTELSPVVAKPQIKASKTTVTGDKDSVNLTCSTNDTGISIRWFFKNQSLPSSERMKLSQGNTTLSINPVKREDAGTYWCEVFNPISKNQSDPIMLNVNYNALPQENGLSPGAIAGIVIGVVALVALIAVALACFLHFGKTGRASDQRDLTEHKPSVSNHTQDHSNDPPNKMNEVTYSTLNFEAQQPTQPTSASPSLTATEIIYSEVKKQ

As to “Opa52 protein of Neisseria gonorrhoeae strain MS11 (natural protein)”, the internalised OpaCEA-positive gonococci in CEACAM1-transfected 293 cells (gentamicin protection assay, 2 h) came to 210000 cfu/ml.
